According to US20080233137A1 (published 2008):

Experiments:
[1] = molecular target: T1, WT-CHIPS (CHIPS 1-121), CHemotaxis Inhibitory Protein from Staphylococcus aureus (Staphylococcus aureus (strain Newman), UniProt A6QIG7 29-149); assay: flow cytometry, 3 ug/ml CHIPS-FITC on HEK-293 cells displaying the C5aR N-terminus (pDISPLAY)
T1 construct: mature

[2] = molecular target: T1, WT-CHIPS (CHIPS 1-121), CHemotaxis …; assay: flow cytometry, 3 ug/ml CHIPS-FITC on HEK-293 cells expressing FLAG-tagged C5aR (pcDNA3.1)

B1: C5aR N-terminus (first 38 amino acids of the human C5aR) displayed on HEK293 cells with the pDISPLAY vector (receptor)
chain: MNSFNYTTPDYGHYDDKDTLDLNTPVDKTSNTLRVPDI
notes: domain: transmembrane domain; also called C5aR N-terminal protein; pDISPLAY C5aR N-terminal protein
**Q.** Does B1 bind [1]?
**A.** Result: binds

B2: FLAG-tagged complete human C5aR expressed on HEK293 cells (pcDNA3.1) (receptor)
chain: MDYKDDDDKNSFNYTTPDYGHYDDKDTLDLNTPVDKTSNTLRVPDILALVIFAVVFLVGVLGNALVVWVTAFEAKRTINAIWFLNLAVADFLSCLALPILFTSIVQHHHWPFGGAACSILPSLILLNMYASILLLATISADRFLLVFKPIWCQNFRGAGLAWIACAVAWGLALLLTIPSFLYRVVREEYFPPKVLCGVDYSHDKRRERAVAIVRLVLGFLWPLLTLTICYTFILLRTWSRRATRSTKTLKVVVAVVASFFIFWLPYQVTGIMMSFLEPSSPTFLLLNKLDSLCVSFAYINCCINPIIYVVAGQGFQGRLRKSLPSLLRNVLTEESVVRESKSFTRSTVDTMAQKTQAV
notes: also called whole C5aR; complete C5aR
**Q.** Does B2 bind [2]?
**A.** Result: binds
